One series concerns the target ZF6961 (ZF(PEDF))-p300 (Artificial Sequence). Kind of series: cell_activity; PEDF mRNA activation in HEK293, 72 h. Conditions: tags: fusion to human p300 HAT domain aa 1284-1673. On the procedure: Expression vectors encoding ZF(PEDF)-p300 or ZF(PEDF)-p65 were transfected into HEK 293 cells. Control cells were transfected with vectors encoding GFP, p65 (no ZF), or p300 (no ZF). Total RNA was isolated 72 hours later, and the levels of PEDF mRNA and cyclophilin A endogenous control mRNA were measured by RT-PCR. The PEDF/cyc ratio was used for normalizing PEDF expression.

In a further series the target is ZF(Oct4+181)-p300 (Artificial Sequence). The series is described as follows: cell_activity; OCT4 mRNA activation in HEK293, 48 h; H3K18 and H3K27 acetylation also increased by ChIP (FIG. 1). Particulars: tags: C-terminal fusion to human p300 HAT domain aa 1284-1673 (NM_001429). On the procedure:
Expression vectors encoding ZF(Oct4+181)-p300 or one of the control fusion proteins described above were transfected into HEK 293 cells. Control cells were transfected with vectors encoding GFP, p65 (no ZF), or p300 (no ZF). After 48 hrs, the cells were harvested and total RNA was isolated. The levels of OCT4 mRNA and cyclophilin A (i.e., PPIA) endogenous control mRNA were measured by real time reverse transcriptase polymerase chain reaction (RT-PCR) (Life Technologies, Carlsbad, Calif.). The OCT4/cyc ratio was used for normalizing OCT4 expression.

The source of these data is patent US20150079657, “TARGETED HISTONE ACETYLATION” (SIGMA-ALDRICH CO. LLC, published 2015).

ZF6961 (ZF(PEDF))-p300 (Artificial Sequence), sequence (chain, as listed by the source): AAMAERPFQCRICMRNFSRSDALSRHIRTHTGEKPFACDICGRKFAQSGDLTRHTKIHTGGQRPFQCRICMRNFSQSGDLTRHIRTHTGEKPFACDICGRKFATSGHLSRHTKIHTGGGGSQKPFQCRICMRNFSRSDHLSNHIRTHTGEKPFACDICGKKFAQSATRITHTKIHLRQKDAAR
ZF(Oct4+181)-p300 (Artificial Sequence), sequence (chain, as listed by the source): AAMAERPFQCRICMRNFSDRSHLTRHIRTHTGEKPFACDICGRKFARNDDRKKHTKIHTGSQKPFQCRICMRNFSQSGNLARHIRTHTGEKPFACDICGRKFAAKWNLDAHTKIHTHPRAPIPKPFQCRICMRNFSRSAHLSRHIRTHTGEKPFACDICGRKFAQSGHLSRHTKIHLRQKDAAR

B1: PEDF -92 target site (dsDNA)
DNA 1: GGATGGTGGTGCAGCAGTG
DNA 2: CACTGCTGCACCACCATCC
As for B1, the activity in the series with ZF6961 (ZF(PEDF))-p300 was more than 2.5 fold.

B2: OCT4 +181 target site (dsDNA)
DNA 1: GGAGGGCCAGGAATCGGGC
DNA 2: GCCCGATTCCTGGCCCTCC
For B2, the activity with ZF(Oct4+181)-p300 was more than 25 fold.
